Test results reported in IntAct's records for PubMed 23851574.

B1: AP-1 complex subunit gamma-like 2 (Homo sapiens), O75843 (parent)
chain: MVVPSLKLQDLIEEIRGAKTQAQEREVIQKECAHIRASFRDGDPVHRHRQLAKLLYVHMLGYPAHFGQMECLKLIASSRFTDKRVGYLGAMLLLDERHDAHLLITNSIKNDLSQGIQPVQGLALCTLSTMGSAEMCRDLAPEVEKLLLQPSPYVRKKAILTAVHMIRKVPELSSVFLPPCAQLLHERHHGILLGTITLITELCERSPAALRHFRKVVPQLVHILRTLVTMGYSTEHSISGVSDPFLQVQILRLLRILGRNHEESSETMNDLLAQVATNTDTSRNAGNAVLFETVLTIMDIRSAAGLRVLAVNILGRFLLNSDRNIRYVALTSLLRLVQSDHSAVQRHRPTVVECLRETDASLSRRALELSLALVNSSNVRAMMQELQAFLESCPPDLRADCASGILLAAERFAPTKRWHIDTILHVLTTAGTHVRDDAVANLTQLIGGAQELHAYSVRRLYNALAEDISQQPLVQVAAWCIGEYGDLLLAGNCEEIEPLQVDEEEVLALLEKVLQSHMSLPATRGYALTALMKLSTRLCGDNNRIRQVVSIYGSCLDVELQQRAVEYDTLFRKYDHMRAAILEKMPLVERDGPQADEEAKESKEAAQLSEAAPVPTEPQASQLLDLLDLLDGASGDVQHPPHLDPSPGGALVHLLDLPCVPPPPAPIPDLKVFEREGVQLNLSFIRPPENPALLLITITATNFSEGDVTHFICQAAVPKSLQLQLQAPSGNTVPARGGLPITQLFRILNPNKAPLRLKLRLTYDHFHQSVQEIFEVNNLPVESWQ
B2: Large envelope protein (Hepatitis B virus genotype D subtype adw (isolate United Kingdom/adyw/1979)), P03139-1 (parent)
chain: MGQNLSTSNPLGFFPDHQLDPAFRANTNNPDWDFNPNKDTWPDANKVGAGAFGLGFTPPHGGLLGWSPQAQGIMQTLPANPPPASTNRQSGRQPTPLSPPLRTTHPQAMHWNSTTFHQTLQDPRVRGLYFPAGGSSSGTVNPVPTTTSPISSIFSRIGDPALNMENITSGFLGPLLVLQAGFFLLTRILTIPQSLDSWWTSLNFLGGTTVCLGQNSQSPISNHSPTSCPPTCPGYRWMCLRRFIIFLFILLLCLIFLLVLLDYQGMLPVCPLIPGSSTTSTGSCRTCTTPAQGISMYPSCCCTKPSDGNCTCIPIPSSWAFGKFLWEWASARFSWLSLLVPFVQWFVGLSPIVWLSVIWMMWYWGPSLYSILSPFLPLLPIFFCLWAYI
partner: B1 chain

Variants of: B1
Details: with S
For P754A, the “effect of a mutation on the interaction” value was “decreasing interaction strength”.
In the case of K719Q, the “effect of a mutation on the interaction” value is reported as “decreasing interaction strength”.
For R760A, the “effect of a mutation on the interaction” value was “decreasing interaction strength”.
R756Q was tested, and the “effect of a mutation on the interaction” value was “decreasing interaction strength”.
With R756A the “effect of a mutation on the interaction” value was “decreasing interaction strength”.
A716G was tested, and the “effect of a mutation on the interaction” value was “decreasing interaction strength”.
S720A was tested, and the “effect of a mutation on the interaction” value was “decreasing interaction strength”.

Variants of: B2
Details: with ap1g2_human AP1G2, O75843
With W32A the “effect of a mutation on the interaction” value was “decreasing interaction strength”.
D31A was tested, and the “effect of a mutation on the interaction” value was “decreasing interaction strength”.
F34A was tested, and the “effect of a mutation on the interaction” value was “decreasing interaction strength”.
With D33A the “effect of a mutation on the interaction” value was “decreasing interaction strength”.
